# Measured values taken from US20170008934A1, “BACTERIALLY FORMED MICROCIN S, A NEW ANTIMICROBIAL PEPTIDE, EFFECTIVE AGAINST PATHOGENIC MICROORGANISMS, E.G. ENTEROHEMORRHAGIC ESCHERICHIA COLI (EHEC)” (SYMBIOGRUPPE GmbH & CO. KG, priority 2011, published 2017).
# System: EHEC (86-24 O157:H7, O104:H4, O128:H2)
# Test: in vitro adherence assay: inhibition of EHEC adherence to human intestinal epithelial cells (LOVO) after pre-incubation with test strains
# Type: cell-based
# Settings: ESBL-producing O104:H4 outbreak strain, O128:H2 and O157:H7 EHEC isolates; FIG. 5 (tested as producer strain E. coli G3/10)
# Protocol: Enterohemorrhagic E. coli adhere to intestinal epithelial cells. In a second experiment, confluent monolayers of LOVO cells were pre-incubated with bacterial test strains at a multiplicity of infection (MOI) of 100:1 E. coli to host cells. The influence of EcN and E. coli G3/10 was tested. After two hours of incubation, cells were washed and infected with EHEC using an MOI of 100:1 EHEC to host cells. Three EHEC isolates were tested as indicator strains using the in vitro adherence assay. We used HUS-associated EHEC 86-24 serotype O157:H7 and two different isolates of the EHEC O104:H4 outbreak strain as well as an EHEC O128:H2 patient isolate. Since the EHEC O104:H4 isolates are ESBL producers, medical treatment is limited. Adherence efficiency in % are expressed as adherence of EHEC relative to adherence without any pre-incubation (negative control), which is set 100%. The data are the mean±SD of three separate experiments in duplicate wells.
molecule,measurement,value
"microcin S: new class IIa microcin, antimicrobial polypeptide of E. coli G3/10, SEQ ID NO: 7 (precursor with leader SEQ ID NO: 6) (protein, listed as Escherichia coli) NANSNYEGGGSRSRNTGARNSLGRNAPTHIYSDPSTVKCANAVFSGMVGGAIKGGPVGMTRGTIGGAVIGQCLSGGGNGNGGGNRAGSSNCSGSNVGGTCSR",inhibitory effect of EHEC,shows an inhibitory effect of EHEC
